Measurements reported in article PMC2975895.

Assays:
[1] = target: SurR oxidized with diamide or colloidal S^0 (Pyrococcus furiosus); assay: SEC
[2] = target: AxxA-SurR (SurR C23A C26A variant) (Pyrococcus furiosus); assay: crystal structure
[3] = target: AxxA-SurR (SurR C23A C26A variant) (Pyrococcus furiosus); assay: SEC

stoichiometry N [1] | stoichiometry N [2] | stoichiometry N [3] | Substance
2 |  |  | SurR oxidized with diamide or colloidal S^0 (natural protein)
 | 2 | 2 | AxxA-SurR (SurR C23A C26A variant) (natural protein)
